1 substance from article PMC1964878 can be followed below.

In general, Km refers to the substrate concentration at which the rate is half of its maximum.

Series [1] deals with O=C(O)[C@@H]1C[C@@H](O)CN1. The series is described as follows: purified protein. To be noted: Tris 20 mM/EDTA 1 mM, pH 8-9 (optimum buffer), 37 C, 10-160 mM substrate.
In series [2] the test system is O=C(O)[C@H]1C[C@@H](O)CN1. The series is described as follows: purified protein. The note with it: Tris 20 mM/EDTA 1 mM, pH 8-9 (optimum buffer), 37 C, 10-160 mM substrate.

For the substance PaHyPRE (Pseudomonas aeruginosa PAO1), the Km in series [1] came to 15.9 mM; in series [2], 18.5 mM.
